In the nanobody polyreactivity screen of Harvey et al. (2022):

Test: yeast display, Sf9 membrane polyspecificity reagent, FACS + sequencing; frameworks hold sequencing errors
Method in brief: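 A synthetic nanobody library was expressed on Saccharomyces cerevisiae BJ5465 by galactose induction for 36–48 hours. The library was stained for 1 hour at 4 °C with 10% biotinylated, detergent-solubilized Sf9 membrane reagent and enriched with streptavidin microbeads before FACS. Low and high (top ~1%) gates were set on anti-HA fluorescence for expression and streptavidin fluorescence for reagent binding, and each polyreactivity label reflects the gate of origin.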

Sequence	polyreactivity (PSR sort gate)
QVQLVESGGGLVQAGGSLRLSCAASGSTFYTYAMGWYRQAPGKERELVATISRGGGRTYYADSVKGRFTISRDNAKNTVYLQMNSLKPEDTAVYYCAARLYSSSYNSEQYYYWGQGTQVTVSS	high polyreactivity
QVQLVESGGGLVQAGGSLRLSCAASGSTFYTYTMGWYRQAPGKERELVAAISSSGGDTYYADSVKGRFTISRDNAKNTVYLQMNSLKPEDSAVYYCAALGAFPSLEFDYWGQGTQVTVSS	low polyreactivity
QVQLVESGGGLVQAGGSLRLSCAASGSTFYTYTMGWYRQAPGKERELVAAITWSGGSTYYADSVKGRFTISRDNANNTVYLQMNSLKPEDTAVYYCNADQDYKGARPSGMDYCGQGTQVTVSS	low polyreactivity
QVQLVESGGGLVQAGGSLRLSCAASGSTFYVNAMGWYRQAPGTERELVAAIRSAGRTNYADSVKGRFTSSRDNAKNTVYLQMNSLKPEDTAVYYCAAEVPHWPYYGRLHDRDYWGQGTQVTVSS	low polyreactivity
QVQLVESGGGLVQAGGSLRLSCAASGSTFYVNTMGWYRQAPGKERELVAAITATGASTYYADSVKGRFTISRDNAKNTVYLQMNSLKPEDTAVYYCNVRLRIRSGYWGQGTQVTVSS	high polyreactivity
QVQLVESGGGLVQAGGSLRLSCAASGSTFYVNTMGWYRQAPGKERELVATITASDGSTYADSVKGRFTISRDNAKNTVYLQMNSLKPDDTAVYYCNADTRTQGPYSAPYYREMNYWGQGTQVTVSS	low polyreactivity
QVQLVESGGGLVQAGGSLRLSCAASGSTFYVYAMGWYRQAPGKERELVAAISRSGGSTYYADSVKGRFTISRDNAKNTVYLQMNSLKPEDTAVYYCAARGYSTYPMDYWGQGTQVTVSS	high polyreactivity
QVQLVESGGGLVQAGGSLRLSCAASGSTFYVYAMGWYRQAPGKERELVAAITSGTSTYYADSVKGRFTISRDNAKNTVYLQMNSLKPEDTAVYYCAAYSYYYRFPYYYWGQGTQVTVSS	high polyreactivity
QVQLVESGGGLVQAGGSLRLSCAASGSTFYVYAMGWYRQAPGKERELVASINSGGITNYADSVKGRFTISRDNAKNTVYLQMNSLKPEDTAVYYCAARSYKTGRYPQRNKYYYWGQGTQVTVSS	high polyreactivity
QVQLVESGGGLVQAGGSLRLSCAASGSTFYVYAMGWYRQAPGKVREFVATISTSGAITYYADSVKGRFTISRDNAKNTVYLQMNSQKPEDTAVYYCARSGSLLSQVWYNYWGQGTQVTVTS	low polyreactivity
QVQLVESGGGLVQAGGSLRLSCAASGSTFYVYDMGCYRQAPGKEREWVAAISSGAGSTYYADSVKGRFTISRDNAKNTVYLQMNSLKRKIPRSITALLFTVNGGGSRSHDYWAQGTQVTVSS	low polyreactivity
QVQLVESGGGLVQAGGSLRLSCAASGSTFYVYDMGWYRQAPGKERELVADISWSGGSTYADSVKGRFTISRDNAKNTVYLQMNSLKPEDTAVYYCAATSRPRPYHGGRMYYWGQGTQVTVSS	high polyreactivity
QVQLVESGGGLVQAGGSLRLSCAASGSTFYWNAMGWYRQAPGKESEFVARISSRGGSTYYADSVKGRFTISRDNAKNTVYLQMNSLKPEDTAVYYCAARLRRTQTYSSGRPGDYWGQGTQVTVSS	high polyreactivity
QVQLVESGGGLVQAGGSLRLSCAASGSTFYWYTMGWYRQAPGKERELVARISSSGSTNYADSVKGRFTISRDNAKNTVYLQMNSLKPEDTAVYYCNKDWIYRGYDYWGQGTQVTVSS	high polyreactivity
QVQLVESGGGLVQAGGSLRLSCAASGSTFYWYTMGWYRQAPGKERELVATITSVGRTNYADSVKGRFTISRDNAKNTVYLQMNSLKPEDTAVYYCAADSYSYRYYYWGQGTQVTVSS	high polyreactivity
QVQLVESGGGLVQAGGSLRLSCAASGSTFYYNAMGWYRQAPGKEREFVAAISSRGGSTYYADSVKGRFTISRDNAKNTVYLQMNSLKPEDTAVYYCAAKYRHRYDWGQGTQVTVSS	high polyreactivity
QVQLVESGGGLVQAGGSLRLSCAASGSTFYYNAMGWYRQAPGKERELVARISRSGGSTYADSVKGRFTISRDNAKKTVSFQMNSLKPEDTAVYYCNADAYGTQEFTSYAVRYDYWGQGTEVTVSS	low polyreactivity
QVQLVESGGGLVQAGGSLRLSCAASGSTFYYNAMGWYRQAPGKERELVAVINSGGSTYYADSVKGRFTISRDNAKNTVYLQMNSLKPEDTAVYYCARRRRESRQDGDYWGQGTQVTVSS	high polyreactivity
QVQLVESGGGLVQAGGSLRLSCAASGSTFYYNAMVWYRQAPGKEREFVASISWRGGRTYYADSVKGRFTISRDNAKNTVYLQMNSLKQEDTAVYYCAKGYLALGQPDDYWGQGTQVTVSS	high polyreactivity
QVQLVESGGGLVQAGGSLRLSCAASGSTFYYNGMGWYRQAPGKEREFVAAITSSGTSTHYADSVKGRFTISRDNAKNTVYLQMNSLKPEDTAVYYCNRYGAHVSTAYYYWGQGTQVTVSS	high polyreactivity
QVQLVESGGGLVQAGGSLRLSCAASGSTFYYNSMGWYRQAHGKERQLVAAISKSSTRTYYADSVKGRFTISRDNAQNTVYLQMNSLKPEDTAVYYCAARQWRRSRFDYWGQGTQVNVSS	high polyreactivity
QVQLVESGGGLVQAGGSLRLSCAASGSTFYYYAMGWYRQAPGKEREFVAAISWRGGSTYYADSVKGRFTISRDNAKNTVYLQMNSLKPEDTAVYYCAATTLYRGVYYRIFGWGYERGHWGQGTQVTVSS	low polyreactivity

Sequence	polyreactivity (PSR sort gate)
QVQLVESGGGLVQAGGSLRLSCAASGSTFYYYAMGWYRQAPGKERELVAAIDWSGESTYYADSVKGRFTISRDNAKNTVYLQMNSLKPEDTAVYYCAADLGYPWGYVLFYKQSFSYYYWGQGTQVTVSS	low polyreactivity
QVQLVESGGGLVQAGGSLRLSCAASGSTFYYYAMGWYRQAPGKERELVAAISVSGASKYYADSVKGRFTISRDNAKNTVYLQMNSLKPEDTAVYYCAADEGYPGDGDYWGQGTQVTVSS	low polyreactivity
QVQLVESGGGLVQAGGSLRLSCAASGSTFYYYAMGWYRQAPGKERELVAAITYRGGSTYYADSVKGRFTISRDNAKNTVYLQMNSLKPEDTAVFYCAIVGYKTSSIRYGYWGQGTQVTVSS	high polyreactivity
QVQLVESGGGLVQAGGSLRLSCAASGSTFYYYAMGWYRQAPGKERELVASISFSGGSTYYADSVKGRFTISRDNAKNTVYLEMNRLKPEDTAVYYCGYYYWGQGTQVTVSS	low polyreactivity
QVQLVESGGGLVQAGGSLRLSCAASGSTFYYYAMGWYRQAPGKERELVASISGGGSTSYADSVKGRFTISRDNAKNTVYLQMNSLKPEDNAVYYCNADPSEYDPNYVVVFSPQKYDYCGQGTQVTVSS	low polyreactivity
QVQLVESGGGLVQAGGSLRLSCAASGSTFYYYAMGWYRQATGKERELVAAISGRGGSTYYADSVKGRFTISRDNAKNTVYLQMNSLKPEDTAVYYCNKRRAAGGFPYDYWGQGTQVTVSS	high polyreactivity
QVQLVESGGGLVQAGGSLRLSCAASGSTFYYYAMGWYRQPPGKERELVASITTGGGSTYYADSVKGRFTISRDNAKNTVYLQMNSLKPEDTAVYYCAAALAYYYWWYDYWGQGTQVTVSS	low polyreactivity
QVQLVESGGGLVQAGGSLRLSCAASGSTFYYYTMGWYRQAPGKEREFVAAITVGGGSTYYADSEKGRFTISRDNAKNTVYLQMNSLKPEDTAVYYCAKEVGRYLGTVSYEYDYWGQGTQVTVSS	high polyreactivity
QVQLVESGGGLVQAGGSLRLSCAASGSTFYYYTMGWYRQAPGKEREFVADITNRGGSTYYADSVKGRFTISRDNAKNTVYLQMNSLKPEDTAVYYCAARFSPWYWAGDYDYWGQGTQVTVSS	high polyreactivity
QVQLVESGGGLVQAGGSLRLSCAASGSTGWYDRGWYRQAPGKERELVASISSGDSTNYADSVKGRFTISRDNAKNTVYLQMNSLKPEDTAVYYCAADFNVGFVWGDDYDYWGQGTQVTVSS	low polyreactivity
QVQLVESGGGLVQAGGSLRLSCAASGSTIADKAMGWYRQAPGKERELVAAITRSGVRTYYADSVKGRFTISRDNAKNTVYLQMNSLKPEDTAVYYCAKRTYPSRIYDYWGQGTQVTVSS	low polyreactivity
QVQLVESGGGLVQAGGSLRLSCAASGSTIAFYDMGWYRQAPGKEREMVAAISQSDGDTYYADSVKGRFTISRDNAKNTVYLQMNSLKPEDTAVYYCARPSFTSGYQSYDYWGQGTQVTVSS	low polyreactivity
QVQLVESGGGLVQAGGSLRLSCAASGSTIATYTMGWYRQAPGKERELVAAISVSGSRTYYADSVKGRFTISRDNAKNTVYLQMNSLIPEDTAVYYCNADPPVKLYLYDYWGQGTQVTVSS	high polyreactivity
QVQLVESGGGLVQAGGSLRLSCAASGSTIDGYAMAWYRQAPGKERELVAAISRRGGSTYYADSVKGRFTISRDNATNTVYLLMNSLTPEDTAVYYCNRYPPRRYYARYYSWGQGTQVTVSS	high polyreactivity
QVQLVESGGGLVQAGGSLRLSCAASGSTIDTYAMGWYRLAPGKERELVAGISWSGGSTFYADSVKGRFTFSRDNAKNTVDLHMNSLKPEDTAVYYCAKQLWVGVKYDYWGQGTQVTVSS	low polyreactivity
QVQLVESGGGLVQAGGSLRLSCAASGSTIEFNAMGWYRQAPGKERELVAAISGSGASTYYADSVKGRFTISRDNAKNTVYVQMNSLKPEDTAVYYCNADSLYYDYQTVDVQALDYWGQGTQVTVSS	low polyreactivity
QVQLVESGGGLVQAGGSLRLSCAASGSTIFENVMGWYREAPRKEREFVAAINTSGRSTYYADSVKGRFTISRDNAKNTVFLQMNSLKPEDTAVDYCARDSYWEMDYWGQGTQVTVSS	low polyreactivity
QVQLVESGGGLVQAGGSLRLSCAASGSTIFGYALGSYRQAPGKERELVAASSSGGSTYYADSVKGRFTISRDNAKNTVYLQMNSLKPEDTAVYYCAATRRLKRYWAQGTQVTVSS	high polyreactivity
QVQLVESGGGLVQAGGSLRLSCAASGSTIIRNTMGWYRKAPGKERELVAAITRSGGSTFYADSVKGRFTISRDNAKNTVYLQMNSLKPEDTAVYYCAAVRSKLYYYWGQGTQVTVSS	high polyreactivity
QVQLVESGGGLVQAGGSLRLSCAASGSTIKTYATMGWYRQAPGKERELVAAITACTSTNYADSVKGRFTISRDNAKNTVYLQMNSLKPEDTAVYYGAADDYYNWYLGEPGDYWGQGTQVTVSS	low polyreactivity
QVQLVESGGGLVQAGGSLRLSCAASGSTILSNAMGWYRQAPGKERELVADITSGGSTYYADSVKGRFTISLDNAKNTVYLQMNSLKQEDTAVYYCAVRYYLRRYDYWGQGTQVTVSS	low polyreactivity
